The values below come from the supplement of paper PMC12636428.

The data set has as its system Saccharomyces cerevisiae. The data set can be described thus: transcriptional activation domain activity (GFP:mCherry ratio, weighted mean of sorted bins, harmonized to initial dataset scale) (arbitrary fluorescence ratio units); higher = stronger transcriptional activation. The note with it: beta-estradiol 1 µM; induction time 4 h. The method, boiled down: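 The activation activity of each tile is the read-weighted mean of bin median fluorescence, averaged across its barcodes and mapped linearly onto the scale of the initial dataset. Tiles were fused to an estradiol-inducible synthetic transcription factor, barcoded, and integrated at URA3 in yeast diploids carrying a GFP reporter. Induction used 1 uM beta-estradiol in SC for 4 hours at 30 °C, after which cells were sorted into 8 GFP:mCherry bins, and any tile with fewer than 50 reads was dropped.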

In the case of “FQTFYSNFKRKVLVWSLRFTNLTYNQPLVWHATFVYILALLSMPWFKAKFIPS”, the “transcriptional activation domain activity” value was 43800. The figure for “FQTIHVDASCIGIASPLVHVELQPDLCGRKFPELIGIDLTAATLVRLLSLLCL” is 43000; for “FRAPYPCCLDVVFAMIWAGARVCLFDSTKALEDLLLARFVLPPHVVCLVGLAQ” it is 48900; for “FRCLFLLFLLFSLICCRAISLQKHCLCLTYASSTALFVIVFILLLFWYLIIIT” it is 76100. For the sequence “FREELVHFFKDPNFDPKLAFESSSYIVNHVLKLTLVMWRYLLVKVEHSFLIAM”, the “transcriptional activation domain activity” value was 59800. The value for “FRFLLKLLLVHGRWNYIRTCKYTLGTFWKEMLFYLTQALYQRWAGYTGTSLYE” was 54800; that for “FRFQQCMTRAMTLIKMYFVGSLRALSLDVFKRLSEKDVSPTAQMHLLYTRFKT” was 56200. The value for “FRLAFMLICVDVFLALFHILDYVLYIPSRVCTFSAWGTLTCELMTIFLNVTIA” was 52500.

With “FRLVPFVLWPPFTRRQTDELYLFSWSFLALIWFFIWSLVQFPIVLTVLLSLVF”, the “transcriptional activation domain activity” value worked out at 52000. As for “FRMVLLVYQVAWAVHVYRTRNIALAYLNNYARMMYAIRSYNYQCLFHQIDLEG”, the “transcriptional activation domain activity” value was found to be 57100.

“FRNGPWWCLAHYIMRAMAVFLLAMSPQVLQVHTDLVLPVKKLIRWLQWMRQDD”: the “transcriptional activation domain activity” value came out at 64200. The figure for “FRPAPPPCSPAPPSPSSSPSSSSPPPPPPSRARRWSSAARARNAATTPCASSG” is 37900. Turning to “FRRYKGPGREDEETDDEDEVRPRRPMEMKKRVLHLLTTEITINTTLYGDFTAF”, the “transcriptional activation domain activity” value was 27700.

In the case of “FRSFVLMRLLVPIPAYFVLSCMFSMINLPFKLSFGGMGYGYGAGFMIWWCFTF”, the “transcriptional activation domain activity” value came out at 65100.

Take “FRSGHSFPRKFGFCVEFTYNFISLLFNWFGLVSASIFFFCFSLFLFFVFYVLT”: the “transcriptional activation domain activity” value is 25000.

Regarding “FRVASYRIWCLLGCGSVWSLIYVPLAWNDGFSLFYLLHPWKIVRVFILNVLAG”, the “transcriptional activation domain activity” value came to 54700.

Turning to “FRVNLMSCIVARLSKKSWIRSVSFPADLTGTASLEIVRLLNRMVKEKRFNIHP”, the “transcriptional activation domain activity” value was 36300. The value for “FRYLSYSKWLILALYINSWAYVVLSMLLVYVVSASRKGRWRSASYRFHMILLS” was 64100; that for “FSAEIAILRWLKGNRQNDYIGALTSINRGLKLMYVHAYQSLVWNRAVSERWAR” was 57900; that for “FSDGELSDDALDKQGKKEKKRKAKAIESGDATPVESKPEKERKKKKSKPEAET” was 31100. The figure for “FSFFFFLFSLFLSFPSFLLPSFLLLFLSFYFSPSYLLLCLFSLIFYKLWPLFL” is 25500; for “FSFFHPLHFLPWLLYPSPLISLFFLSFFILFSFFVFFFSCPFFLSLFHIFFPV” it is 33000. As for “FSFGLLFWFLFLFLFLLLFVFLFWSFGFVLLLVLVLFLCSFLLFMFGFWFSSG”, the “transcriptional activation domain activity” value was found to be 47100.

With “FSFGLYLLYHSPYWMNVAQLWVNYPHIEFMPGIKKYYLIQMSYWLQQMYFIQI”, the “transcriptional activation domain activity” value amounted to 48700. The value for “FSHIQPGLNVPVRTIMFCFLFNVAFGLLYLGPSVAFGAYVASCTILLNISYAF” was 70800; that for “FSIVACVVGCQDSEWGLQFSHERCFTLHTLGHLSQFEKIVVVLIACKLLLFSK” was 65200; that for “FSLAGSNYLGICWNPAVKNCIPYDTYLLWIRCMPFWYLFVFLYDIIPPILIVY” was 59800.

As for “FSLFGSFGCFGSLTLLLSLVMPVVLFVMLQWVMVWIWSCCFIFRLGMLTSFDV”, the “transcriptional activation domain activity” value stood at 54500. The value for “FSLFLLSLLPTADAFFPLLLFVSCWLTLYTFVLCLLSYFFYSLTLTLYVCLVS” was 55800; that for “FSLGLRTPLDHLLLAFFVLCGLTRLARFNVTVAMLPKDATGKSQYFEGTPIPT” was 73300. The figure for “FSLGTVLLALCRYLPFGTILQIYVLFLRVESPLCVNGYRAIAFPVVCLWVLLV” is 52600; for “FSLIKGLGSLVPLNKLRQESLLEEEDENNTEPSDFRTIVEEFQSEYNISDILS” it is 45000; for “FSLLLDSYIFLFNYCPVRYRYGYLIKDLVQNASRIKSIYTNSDLKFLFSFVWM” it is 53800. The value for “FSLLSFCCLLVPLLLSYIPLTTSHVFPILLFFFTLPLTSALPLLLLYLFHELL” was 47000; that for “FSLSLHICFIFSRLIMLHCIFSLLKMIPFCAKFFCFFLFLFLFSPFLLYILFV” was 54000; that for “FSMRFVVLIDLFATFLQPASIIYVLYLIYVAAFDKATAFPMISLIMLACIYGL” was 17000. For “FSMTVGFTTAFSFLFLGYPTWGTRLWSFLPFWIGFYNLFVFLSKLDPIWAILF”, the “transcriptional activation domain activity” value was 48800. The figure for “FSSINANPFDLDEQLAIELSAFADDSFIFPDEDKPSNNNNNSNNGNDDHSNHD” is 80300; for “FSSLEDSLPSSISPPIQTTSTINFNWCFKEEKNNDLKCKWKECPESCSSLFDL” it is 69800. Take “FSTSLTSWSTSLNLLFFYMTWSTLVLSHSPLRIELIGITAIRTVLWLIPSLVF”: the “transcriptional activation domain activity” value was found to be 63100.

On to “FSVLFSKLFVWGILPYQTVGVVIQHTCQAVFLFVNIYWTFWRNWPWVQSGFFT”, for which the “transcriptional activation domain activity” value was 80100. The figure for “FSWFALANIWLMFSIIIDLLPGQNIIIFGTADIICGTHWMNLVFKWIYLAFLV” is 36900; for “FSWVELCLSVTWWFFPACLLLSDTLVLVYLTPGLDVLVPFSMIFVYCFLGLPP” it is 52300. The figure for “FSYFYCFFFPLFTFFLFHIFVLLSIKQFLFLFLFVFLFLVLLFIVPPLFPVSV” is 17300.

As for “FTELEKHSNVSQFNTLDVSEGNQVINESASTNTSSALNCQSYTNNQDIMDILF”, the “transcriptional activation domain activity” value amounted to 48800.

Consider “FTFILMMACLVSGIGWCLLYFTCMYLLLIYYILSLFYPPLASCNSFSFFFSFV”, for which the “transcriptional activation domain activity” value is 64100. Consider “FTKTIMHITLILNILMNMCVAPTLLPLQVYYWLTKYYCACHGCLPHFTVIALF”, for which the “transcriptional activation domain activity” value was 60900. The value for “FTKVIKLVSHFVLYFINICFILITIFFGYFYNLIKFYILLTLYLVSLRTLLSL” was 47700; that for “FTMLIGRKRPDVSTCVLIAVVISQCLFYVVVFFVKILGLVKYFLLFSSLADKL” was 56300.

On to “FTPWLSSTFFLFFAVIRWGAYCLVPLLLPSFPSIPLSLYPIRFPSTHVLVLIV”, for which the “transcriptional activation domain activity” value is 61000. The value for “FTQFEDTWNLDVTPNFLPDLNDFDMERLDFSLADDFAQSIASFPYSPPETLLI” was 149000; that for “FTRHLSKEEIDVVVDCVWRASKLRNCTRVTVMECCVRTAPWFNSDGVICAYIM” was 49700.

Consider “FTRVDICFRNCYAGGTVVLVYSALAFFLLLMIAMYGNGYHGPFAWMTFTLSTV”, for which the “transcriptional activation domain activity” value stood at 53000. The figure for “FTSIMMTLVSLVQVGLLQFQCRDLLLCGIYIFYCLIKVPYLSLICSATLLVYG” is 44300; for “FTSPLPFALVPLFMYGDAQNWCWFTKQNTLYGIYLWFMWLWILFAFNLVCLFF” it is 56600. The figure for “FTYMDRLQLIQAPFPWRDRMALTAITEFVATYYQNMHVDITVTMRKLGYLEKL” is 60800; for “FVARLFQSLRRWWDSGLTTHLINASLFFISDGGKYFMGILCYFFQHLWRHHGM” it is 47900. The value for “FVCVASAIGGVGYLLLLTVAENVHVRYFATFCIVSGTYTTIGIVIAWFAHNLG” was 48700; that for “FVEDPEMRRSIVRKFDWRVLTWMAGLSSYLRLWVLYRSSLTRLLMCLVLCINA” was 69800.

“FVEKGRERERGKGRRGGGGGAGEEQREGGGGGRGGGRGKTVVVVVRDVASSGD”: the “transcriptional activation domain activity” value is 25100. Take “FVGFVGSLKRQFLRQQFGLFCWVHMSLLLIVCASHFVMNNILEGMIWFWVPAS”: the “transcriptional activation domain activity” value came out at 60400. “FVGIRDRTTFLLFTSAWTVVFSLLFVLLFMHSASTGSPLTSVASHFVVFLLTW”: the “transcriptional activation domain activity” value was 56900. The figure for “FVGNQAGCYNLVPVYDWIKRCIISIFVVFFISFLPLFLQELCERGVIRALYRL” is 72800; for “FVGPQLCRDDAWLHTSIQFTRNVGITRNLLRMLPAVVRPIVARLLPSYWRIYS” it is 41700; for “FVHVYLRKRISGFPPGYRVAGELIIWCGAVVALSFESILATDASGSGYRLSDP” it is 58200.

As for “FVIGMSICRAAPGLYIYCWKENIFFLEPSYKSAAVVLSWVWFQVFLLLSQQFF”, the “transcriptional activation domain activity” value is 59200.

Regarding “FVLDTFLWYIIWNTDIYTRLPKRIYAKILATADMEVKYKPKVLVSQIWNAVLI”, the “transcriptional activation domain activity” value was found to be 14000. The value for “FVLLFSIFQILFSKSPFVLCVWLISLALIATIKTMYSVLITWHLQFLAFPFYS” was 54400; that for “FVLLLFTCVHVFVVYLVVIAFFTVNICLLWTIALSFMLWYIFFCNLSCSTWPL” was 54300; that for “FVLYFFFFFFLFFFFASGLVFFIRLFFFCAVFSASPYSCCCYYFNCAYPIYVL” was 55700. Regarding “FVNLPYYPHVHLSSFFFFCFSLSIFVLSFRFVHLIPFPSYLLCLSVRLFFGLL”, the “transcriptional activation domain activity” value amounted to 25600. The figure for “FVTFVFCPPLLAFAHRFGRKVLKRIILALLAFHLVIVLLSSAIMSPYDELHPK” is 34300; for “FVTLFGLAYFILTILPCLDHSCPYRTPMSSLWWYLWHMSLSSATLCLCWLLRL” it is 33600.

On to “FVVLLYQSIFVLSLWLLPVFFKSHIKSLSYKSQVDTSIHVVSMFQCLLILYLI”, for which the “transcriptional activation domain activity” value worked out at 50200.
